Target: human p23 co-chaperone (human) (UniProt Q15185)
Assay: SEC; HiPrep Sephacryl S-200; each protein alone; 50mM Hepes, 150mM NaCl, 50mM KCl, 10mM MgCl2, 1mM DTT, pH 7.5; molecular weight interpolated from standards

- stoichiometry N: 2
Substance: human p23 co-chaperone (from UniProt Q15185 1-160) (natural protein)
